These results are taken from patent US20100310509A1 (published 2010).

The term Kd denotes the concentration at which binding is half-saturated. Low readings indicate tighter binding, high ones weaker binding. One may read the koff as the first-order rate constant of dissociation. A low value points to slow dissociation. As usually defined, the kon is a measure of how fast the partners come together. Higher therefore signals faster complex formation.

Assay [1] deals with T1, soluble human LIFR (leukemia inhibitory factor receptor) (human, UniProt P42702 45-833).
T1 construct: extracellular domain; Bought; also called soluble LIFR
T1 sequence (looked up): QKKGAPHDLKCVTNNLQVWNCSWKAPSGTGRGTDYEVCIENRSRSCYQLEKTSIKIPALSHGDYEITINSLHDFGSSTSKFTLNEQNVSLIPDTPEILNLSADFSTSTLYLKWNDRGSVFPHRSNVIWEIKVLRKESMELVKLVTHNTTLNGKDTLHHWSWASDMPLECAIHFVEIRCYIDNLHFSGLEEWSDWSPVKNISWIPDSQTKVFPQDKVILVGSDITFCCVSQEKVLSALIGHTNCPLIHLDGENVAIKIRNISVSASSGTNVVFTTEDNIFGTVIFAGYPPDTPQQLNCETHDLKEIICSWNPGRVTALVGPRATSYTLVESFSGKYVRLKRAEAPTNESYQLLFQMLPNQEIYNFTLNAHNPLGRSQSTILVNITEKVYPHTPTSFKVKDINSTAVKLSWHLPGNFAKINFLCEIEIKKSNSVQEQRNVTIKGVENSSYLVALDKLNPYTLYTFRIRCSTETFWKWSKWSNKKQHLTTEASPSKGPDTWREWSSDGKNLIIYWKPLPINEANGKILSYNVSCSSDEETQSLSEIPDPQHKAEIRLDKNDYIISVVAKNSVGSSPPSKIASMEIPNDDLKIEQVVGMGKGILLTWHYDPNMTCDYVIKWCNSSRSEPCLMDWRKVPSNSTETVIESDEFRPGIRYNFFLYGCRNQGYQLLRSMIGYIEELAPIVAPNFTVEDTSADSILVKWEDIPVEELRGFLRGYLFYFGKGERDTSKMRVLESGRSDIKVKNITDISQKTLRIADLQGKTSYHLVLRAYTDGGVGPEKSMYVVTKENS
Nature of the assay: SPR (SensiQ), cytokine immobilised, soluble LIFR as analyte, 1:1 model. The protocol:
(§1) Surface Plasmon Resonance (SPR): Kinetic parameters of the interactions between receptor domains and the cytokines LIF, OSM-WT, OSM-M1 or OSM-M2 were analyzed by SPR using the SENSIQ® system (ICX Technologies, Oklahoma City, Okla.) as described by the manufacturer protocol. Briefly, a carboxyl sensor with two channels was installed in SENSIQ® and allowed to thermally equilibrate for about 15 minutes. The channels were initially cleaned with a 3 minute injection of 0.1 M HCl. An activation solution of 2 mM 1-Ethyl-3-[3-dimethylaminopropyl]carbodiimide hydrochloride (EDC) and 0.5 mM N-hydroxysulfo succinimide (NHS) was prepared in deionized water immediately before injection. Activation solution was injected over both channels for approximately 3 minutes followed by a 10 minute injection of 50 μg/mL cytokine (LIF, OSM-WT, OSM-M1 or OSM-M2) in 10 mM acetate buffer, pH 5.0, over channel 1. […] Unreacted NHS esters were capped with a 3 minute injection of 1 M ethanolamine, pH 8.0, over both channels. […] A concentration series of soluble LIFR (# 249-LR-050/CF, R&D Systems, Minneapolis, Minn.), soluble OSMR (# 4389-OR-50, R&D Systems, Minneapolis, Minn.) or soluble gp130 (# 228-GP-050/CF, R&D Systems, Minneapolis, Minn.) in running buffer (10 mM HEPES pH 7.4, 150 mM NaCl, 3.4 mM EDTA, 0.005% Tween-20) were injected over both channels at a flow rate of 25 μl/min. Following a dissociation period of 3 minutes, the surfaces were regenerated by injecting 10 mM NaOH for 30 seconds. Rate constants for association (kₐ) and dissociation (kd) rates were derived by global analysis of the response curves fit to a 1:1 kinetic model (Equations 1 and 2) using QDat software (BioLogic Software, Ltd. Knoxville Tenn. and Nomadics, Inc. Stillwater, Okla.) using 1:1 stoichiometry.
(§2) Reducing the size of the BC loop improves OSM's affinity towards LIFR and OSMR. […] To directly measure the binding kinetics of these ligand-receptor interactions, surface plasmon resonance (SPR) was used.

For assay [2], the target named is T2, soluble gp130 (R&D Systems # 228-GP-050/CF) (UniProt P40189 23-619, limits assumed).
T2 construct: extracellular domain; Bought
T2 sequence (looked up): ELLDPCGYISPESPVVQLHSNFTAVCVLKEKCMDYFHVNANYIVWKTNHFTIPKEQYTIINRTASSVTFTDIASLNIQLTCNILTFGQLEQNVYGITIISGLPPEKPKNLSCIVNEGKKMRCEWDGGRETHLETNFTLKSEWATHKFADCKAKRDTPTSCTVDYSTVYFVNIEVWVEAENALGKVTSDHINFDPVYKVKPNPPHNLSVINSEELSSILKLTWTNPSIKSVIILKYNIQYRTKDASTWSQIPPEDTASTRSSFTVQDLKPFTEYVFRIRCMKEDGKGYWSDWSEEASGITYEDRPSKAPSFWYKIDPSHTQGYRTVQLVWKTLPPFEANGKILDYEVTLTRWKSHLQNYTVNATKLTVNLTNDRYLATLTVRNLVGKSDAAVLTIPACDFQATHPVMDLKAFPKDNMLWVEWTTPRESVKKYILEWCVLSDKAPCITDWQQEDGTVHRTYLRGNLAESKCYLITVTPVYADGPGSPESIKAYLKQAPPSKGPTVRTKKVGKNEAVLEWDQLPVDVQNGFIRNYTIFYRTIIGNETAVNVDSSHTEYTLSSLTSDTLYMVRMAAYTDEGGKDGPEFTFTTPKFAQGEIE
The experiment in a line: SPR (SensiQ), cytokine immobilised, soluble gp130 as analyte, 1:1 model. On the procedure:
as §1, §2

B1: OSM-WT ('AGA' modified human Oncostatin M, referred to as wild-type OSM) (ligand)
chain: AAIGSCSKEYRVLLGQLQKQTDLMQDTSRLLDPYIRIQGLDVPKLREHCRERPGAFPSEETLRGLGRRGFLQTLNATLGCVLHRLADLEQRLPKAQDLERSGLNIEDLEKLQMARPNILGLRNNIYCMAQLLDNSDTAEPTKAGAGASQPPTPTPASDAFQRKLEGCRFLHGYHRFMHSVGRVFSKWGESPN
notes: also called hOSM with AGA modification; not shown: N-terminal FLAG tag left after thrombin removal of GST
In the case of B1, in assay [1], the affinity, expressed as Kd, was 43.8 nM; the off-rate constant (koff) is 0.004 s⁻¹; the kon turned out to be 91000 M⁻¹ s⁻¹. Besides, in assay [2], the dissociation constant Kd came out at 22.7 nM, the koff amounted to 0.0047 s⁻¹ and the on-rate (kon) came out at 207000 M⁻¹ s⁻¹.

B2: OSM-M2 (OSM with BC loop truncated from 12 to 4 amino acids) (ligand)
chain: AAIGSCSKEYRVLLGQLQKQTDLMQDTSRLLDPYIRIQGLDVPKLREHCRERPGAFPSEETLRGLGRRGFLQTLNATLGCVLHRLADLEQRLGGGNIEDLEKLQMARPNILGLRNNIYCMAQLLDNSDTAEPTKAGAGASQPPTPTPASDAFQRKLEGCRFLHGYHRFMHSVGRVFSKWGESPN
notes: Made from the 'AGA' modified OSM template; lacks the thrombin site; not shown: N-terminal FLAG tag left after thrombin removal of GST
For the molecule B2, in assay [1], the Kd worked out at 2.74 nM, the koff was found to be 0.00356 s⁻¹ and the kon was 1.3e+06 M⁻¹ s⁻¹. For the same molecule, in assay [2], the dissociation constant Kd amounted to 21.5 nM, the off-rate (koff) was 0.00487 s⁻¹ and the kon was 227000 M⁻¹ s⁻¹.

B3: human leukemia inhibitory factor (LIF) (ligand)
chain: not shown
notes: Purified recombinant protein; also called hLIF
As to B3, in assay [1], binding was put at a Kd of 3.1 nM, the koff came out at 0.0023 s⁻¹ and the kon was found to be 740000 M⁻¹ s⁻¹. For the same molecule, in assay [2], the dissociation constant Kd was 72.4 nM, the dissociation rate constant (koff) turned out to be 0.00533 s⁻¹ and the on-rate (kon) is 74000 M⁻¹ s⁻¹.

B4: OSM-M1 (OSM with BC loop truncated from 12 to 7 amino acids) (ligand)
chain: AAIGSCSKEYRVLLGQLQKQTDLMQDTSRLLDPYIRIQGLDVPKLREHCRERPGAFPSEETLRGLGRRGFLQTLNATLGCVLHRLADLEQRLGAPSGLNIEDLEKLQMARPNILGLRNNIYCMAQLLDNSDTAEPTKAGAGASQPPTPTPASDAFQRKLEGCRFLHGYHRFMHSVGRVFSKWGESPN
notes: as for B2
Consider B4, for which, in assay [1], binding was put at a Kd of 7.62 nM, the koff worked out at 0.00252 s⁻¹ and the association rate constant (kon) was 331000 M⁻¹ s⁻¹. In assay [2], this molecule displayed a Kd of 26.3 nM, a koff of 0.00534 s⁻¹ and a kon of 203000 M⁻¹ s⁻¹.
